Measurements as given in patent publication US5693476.

Columns and labels:
[1] = molecular target: GST-syntaxin 1A cytoplasmic domain fusion protein (Syn 1A11, amino acids 4-266), immobilized on glutathione agarose beads (Schistosoma japonicum; rat); assay: GST-syntaxin 1A (wild type) on glutathione beads, soluble ligand, Western blot densitometry, FIG. 5B
[2] = molecular target: GST-syntaxin 1A deletion mutant Syn 1A17 (amino acids 4-240) (Schistosoma japonicum; rat); assay: 20S complex on GST-Syn 1A17 beads, ATP and Mg++, Western blot densitometry
[3] = molecular target: GST-syntaxin 1A deletion mutant Syn 1A17 (amino acids 4-240) (Schistosoma japonicum; rat); assay: GST-syntaxin deletion mutant on glutathione beads, soluble ligand, Western blot densitometry; FIG. 4C row 5 from top, row label only in the figure (assigned by Table 1 order and paragraph 328)
[4] = molecular target: GST-syntaxin 1A deletion mutant Syn 1A5 (amino acids 4-114) (Schistosoma japonicum; rat); assay: GST-syntaxin deletion mutant on glutathione beads, soluble ligand, Western blot densitometry; FIG. 4C row 2 from top, row label only in the figure (assigned by Table 1 order and paragraph 328)
[5] = molecular target: GST-syntaxin 1A deletion mutant Syn 1A6 (amino acids 4-190) (Schistosoma japonicum; rat); assay: GST-syntaxin deletion mutant on glutathione beads, soluble ligand, Western blot densitometry; FIG. 4C row 3 from top, row label only in the figure (assigned by Table 1 order and paragraph 328)
[6] = molecular target: GST-syntaxin 1A deletion mutant Syn 1A13 (amino acids 4-221) (Schistosoma japonicum; rat); assay: 20S complex assembly on GST-syntaxin beads with all four proteins together, ATP, 18° C. overnight MgCl2, Western blot densitometry, FIG. 6B
[7] = molecular target: GST-syntaxin 1A H3 domain construct Syn 1A16 (amino acids 191-266) (Schistosoma japonicum; rat); assay: as above
[8] = molecular target: GST-syntaxin 1A cytoplasmic domain fusion protein (Syn 1A11, amino acids 4-266), immobilized on glutathione agarose beads (Schistosoma japonicum; rat); assay: as above
[9] = molecular target: GST-syntaxin 1A deletion mutant Syn 1A6 (amino acids 4-190) (Schistosoma japonicum; rat); assay: as above
[10] = molecular target: GST-syntaxin 1A deletion mutant Syn 1A17 (amino acids 4-240) (Schistosoma japonicum; rat); assay: as above
[11] = molecular target: GST-syntaxin 1A cytoplasmic domain fusion protein (Syn 1A11, amino acids 4-266), immobilized on glutathione agarose beads (Schistosoma japonicum; rat); assay: 20S complex assembly on GST-syntaxin beads with SNAP-25, VAMP, α-SNAP and NSF added together, ATPγS, 25° C., Western blot densitometry, FIG. 6A
[12] = molecular target: GST-syntaxin 1A cytoplasmic domain fusion protein (Syn 1A11, amino acids 4-266), immobilized on glutathione agarose beads (Schistosoma japonicum; rat); assay: GST-syntaxin deletion mutant on glutathione beads, soluble ligand, Western blot densitometry; FIG. 4C row 6 from top, row label only in the figure (assigned by Table 1 order and paragraph 328)
[13] = molecular target: GST-syntaxin 1A deletion mutant Syn 1A13 (amino acids 4-221) (Schistosoma japonicum; rat); assay: GST-syntaxin deletion mutant on glutathione beads, soluble ligand, Western blot densitometry; FIG. 4C row 4 from top, row label only in the figure (assigned by Table 1 order and paragraph 328)
[14] = molecular target: GST-syntaxin 1A cytoplasmic domain fusion protein (Syn 1A11, amino acids 4-266), immobilized on glutathione agarose beads (Schistosoma japonicum; rat); assay: 20S complex assembly on GST-syntaxin beads with SNAP-25, VAMP, α-SNAP and NSF added together, ATP, 25° C., Western blot densitometry, FIG. 6A
[15] = molecular target: GST-syntaxin 1A (Syn1A11) point mutant M6: A240V, V244A (Schistosoma japonicum; rat); assay: GST-syntaxin point mutant on glutathione beads, soluble ligand, Western blot densitometry, FIG. 5B
[16] = molecular target: GST-syntaxin 1A (Syn1A11) point mutant M3: L212A, F216A (Schistosoma japonicum; rat); assay: as above
[17] = molecular target: GST-syntaxin 1A (Syn1A11) point mutant M4: V223A, Q226A (Schistosoma japonicum; rat); assay: as above
[18] = molecular target: GST-syntaxin 1A (Syn1A11) point mutant M2: L205A, I209A (Schistosoma japonicum; rat); assay: as above
[19] = molecular target: GST-syntaxin 1A (Syn1A11) point mutant 13 (four point mutations) (Schistosoma japonicum; rat); assay: as above
[20] = molecular target: GST-syntaxin 1A (Syn1A11) point mutant 45 (Schistosoma japonicum; rat); assay: as above
[21] = molecular target: GST-syntaxin 1A (Syn1A11) point mutant M1: R198A, I202A (Schistosoma japonicum; rat); assay: as above
[22] = molecular target: GST-syntaxin 1A (Syn1A11) point mutant M5: I230A, I233A (Schistosoma japonicum; rat); assay: as above
[23] = molecular target: GST-syntaxin 1A (Syn1A11) point mutant 12 (four point mutations) (Schistosoma japonicum; rat); assay: as above
[24] = molecular target: GST-syntaxin 1A (Syn1A11) point mutant 34 (Schistosoma japonicum; rat); assay: as above
[25] = molecular target: GST-syntaxin 1A deletion mutant Syn 1A4 (amino acids 8-76) (Schistosoma japonicum; rat); assay: GST-syntaxin deletion mutant on glutathione beads, soluble ligand, Western blot densitometry; FIG. 4C row 1 from top, row label only in the figure (assigned by Table 1 order and paragraph 328)

Sequence of His-tagged α-SNAP (soluble NSF attachment protein), soluble recombinant (P81125 whole entry): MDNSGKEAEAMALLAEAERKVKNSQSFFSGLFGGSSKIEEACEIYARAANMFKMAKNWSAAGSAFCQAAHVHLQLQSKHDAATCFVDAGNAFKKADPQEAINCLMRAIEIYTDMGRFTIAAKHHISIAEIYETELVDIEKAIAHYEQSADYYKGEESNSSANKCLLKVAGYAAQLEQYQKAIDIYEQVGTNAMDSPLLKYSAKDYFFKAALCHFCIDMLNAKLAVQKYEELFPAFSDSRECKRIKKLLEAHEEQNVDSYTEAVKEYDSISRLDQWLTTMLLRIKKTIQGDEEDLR
Sequence of SNAP-25 (synaptosomal-associated protein of 25 kDa), soluble recombinant (chain): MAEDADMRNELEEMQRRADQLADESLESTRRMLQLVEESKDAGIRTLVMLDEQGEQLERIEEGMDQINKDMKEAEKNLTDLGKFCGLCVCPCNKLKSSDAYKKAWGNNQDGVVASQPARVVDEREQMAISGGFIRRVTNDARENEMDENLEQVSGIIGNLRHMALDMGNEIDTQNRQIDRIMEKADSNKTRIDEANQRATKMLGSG

Row | Substance | densitometry pixel value [1] [pixel value] | percent dissociated in the presence of ATP and Mg++ [2] [%] | densitometry pixel value [3] [pixel value] | densitometry pixel value [4] [pixel value] | densitometry pixel value [5] [pixel value] | densitometry pixel value [6] [pixel value] | densitometry pixel value [7] [pixel value] | densitometry pixel value [8] [pixel value] | densitometry pixel value [9] [pixel value] | densitometry pixel value [10] [pixel value] | densitometry pixel value [11] [pixel value] | densitometry pixel value [12] [pixel value] | densitometry pixel value [13] [pixel value] | densitometry pixel value [14] [pixel value] | densitometry pixel value [15] [pixel value] | densitometry pixel value [16] [pixel value] | densitometry pixel value [17] [pixel value] | densitometry pixel value [18] [pixel value] | densitometry pixel value [19] [pixel value] | densitometry pixel value [20] [pixel value] | other results
1 | His-tagged α-SNAP (soluble NSF attachment protein), soluble recombinant (from UniProt P81125) | 414 | 25 | 1660 | 0 | 0 | 0 | 1540 | 331 | 0 | 793 | 1490 | 1670 | 0 | 132 | 633 | 23 | 43 | 36 | 15 | 7 | densitometry pixel value [21]: 53 pixel value; densitometry pixel value [22]: 25 pixel value; densitometry pixel value [23]: 23 pixel value; densitometry pixel value [24]: 10 pixel value; densitometry pixel value [25]: 0 pixel value
2 | SNAP-25 (synaptosomal-associated protein of 25 kDa), soluble recombinant | 555 | 0 | 623 | 19 | 9 | 1310 | 484 | 75 | 0 | 546 | 839 | 797 | 417 | 768 | 875 | 866 | 754 | 672 | 143 | 640 | densitometry pixel value [21]: 586 pixel value; densitometry pixel value [22]: 824 pixel value; densitometry pixel value [23]: 361 pixel value; densitometry pixel value [24]: 712 pixel value; densitometry pixel value [25]: 19 pixel value
3 | VAMP (vesicle-associated membrane protein; VAMP 2), soluble recombinant | 2610 | 0 | 0 | 0 | 0 | 1560 | 951 | 133 | 0 | 903 | 528 | 286 | 0 | 32 | 0 | 0 | 0 | 17 | 0 | 0 | densitometry pixel value [21]: 37 pixel value; densitometry pixel value [22]: 0 pixel value; densitometry pixel value [23]: 0 pixel value; densitometry pixel value [24]: 0 pixel value; densitometry pixel value [25]: 0 pixel value
